Values quoted from earlier work as cited in paper PMC3025320.

Tests used:
[1] = biological target: C3d C3d (Homo sapiens) (UniProt P01024); assay: ITC
[2] = biological target: C3d C3d (996-1303) (Homo sapiens) (UniProt P01024); assay: ITC
Sequence of C3d C3d (996-1303) (Homo sapiens) (P01024 996-1303): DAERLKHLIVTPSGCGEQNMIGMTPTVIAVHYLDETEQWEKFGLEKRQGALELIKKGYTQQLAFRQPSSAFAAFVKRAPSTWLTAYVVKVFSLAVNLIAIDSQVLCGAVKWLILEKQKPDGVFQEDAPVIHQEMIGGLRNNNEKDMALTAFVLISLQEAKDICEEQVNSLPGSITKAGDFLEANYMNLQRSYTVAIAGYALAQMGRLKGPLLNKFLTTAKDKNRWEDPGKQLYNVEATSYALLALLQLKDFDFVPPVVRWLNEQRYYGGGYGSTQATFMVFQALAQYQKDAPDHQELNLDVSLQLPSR

Sequence of C3d C3d (Homo sapiens) (P01024 1002-1303): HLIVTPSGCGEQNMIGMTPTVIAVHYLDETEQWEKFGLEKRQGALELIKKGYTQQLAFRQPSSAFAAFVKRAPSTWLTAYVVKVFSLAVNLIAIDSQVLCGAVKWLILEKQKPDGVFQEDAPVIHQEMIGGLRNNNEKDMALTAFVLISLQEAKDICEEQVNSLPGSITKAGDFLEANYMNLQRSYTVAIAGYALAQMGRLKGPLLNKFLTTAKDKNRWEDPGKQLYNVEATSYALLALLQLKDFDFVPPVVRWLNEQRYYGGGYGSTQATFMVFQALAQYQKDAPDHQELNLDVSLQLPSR
Sequence of Efb-C Efb-C (P68799 101-165): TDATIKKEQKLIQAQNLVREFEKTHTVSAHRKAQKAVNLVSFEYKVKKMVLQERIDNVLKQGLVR

| Substance | Kd [1] | Kd [2] |
| --- | --- | --- |
| Efb-C Efb-C (from UniProt P68799) | 0.002 µM |  |
| Sbi-III-IV domains III-IV (from UniProt A7X659) | 0.4 µM |  |
| Sbi-III–IV domains III-IV (from UniProt A7X659) |  | 0.4 µM |
| Sbi-IV domain IV (from UniProt A7X659) | 0.36 µM | 0.36 µM |
